Experimental data from patent publication US20240218374, “Nucleic Acid Compounds That Bind Coronavirus Proteins” (Somalogic Operating Co., Inc., published 2024).

Target: Spike RBD (SARS-CoV-2, UniProt P0DTC2 SEQ:1-223)
Test: filter

B1: 26874-29_4 (SL1111) (ssDNA)
DNA: CCTTGGGATACTATGCGTCCGACCGCTCGGACGGAGAAGG
modifications: Y=Tyr-dU, p=Nap-dC; printed …pYAYGpGYppGAppGpYpGGApGGAGAAGG [Tyr-dU: 9,12,14,18,27; Nap-dC: 11,16,19,20,23,24,26,28,32]
Kd: 0.3 nM
